Measurements published in the supplement of paper PMC12764529.
± gives the half width of the 95% confidence interval.

Tests used:
[1] = folding stability dG unfold from trypsin proteolysis; higher = more stable
Method: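 Folding stability of de novo designed mini-proteins (<80 aa, no Cys; designed by TrROS, TrMRF, ProteinMPNN and the joint model) was measured by cDNA display proteolysis with trypsin and chymotrypsin. Each protease was used at 11 concentrations in a threefold dilution series plus a no-protease condition. K50 was inferred by Bayesian fitting of sequencing counts, and dG unfold was derived against a sequence-predicted unfolded-state K50 (Tsuboyama et al. method). Sequences shown include variable-length N-terminal GS-type padding (SAGGSAGG...) inside a display construct carrying a PA tag. Rows were kept only if the AF2 dimer inter-PAE was >15, to exclude likely homo-oligomers.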

[2] = folding stability dG unfold (combined trypsin and chymotrypsin); higher = more stable
In short: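 Only designs with AlphaFold2 dimer inter-PAE above 15 were retained; each was a mini-protein under 80 residues with no cysteine, in a PA-tagged cDNA display construct. After digestion with trypsin and chymotrypsin and sequencing, K50 was inferred by Bayesian fitting of counts, and unfolding free energy was derived per protease or combined against a sequence-predicted unfolded-state K50 and a shared folded-state K50.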

Sequence	folding stability dG unfold [1] [kcal/mol]	folding stability dG unfold [2] [kcal/mol]
SAGGSASMITSTLTDPSTGTSSTLPTEVLQKLLDENPPDSNLVLPTGPKPVTVKVEPEKGLATFTGSAGGSA [r15_350_JUSTAS]	0.153 ± 0.039	-0.989 ± 0.29
SAGGSASYSSLKITIIDTGTTTTVPPGATTTPTVVKLPDNKTAIITTTTPPDGTTATTVELFDNDKSAGGSA [r15_559_JUSTAS]	-0.717 ± 0.12	< -1
SAGGSATIKEGQVITRTVTDPSTGKEYEVEITIKKVTKYPASPEGILREEYEIEVKKSPKVSPLKLSAGGSA [r15_248_JUSTAS]	0.112 ± 0.12	< -1
SAGGSAVVEIPIPPSSLDVRALIVPTDGPLTTVLVEETLPDGTPRVRLYRYDPARGEVRPLAEELPSAGGSA [r2_402_JUSTAS]	-0.671 ± 0.17	< -1
SAGGSAYGKKKNDPDGNPKYEMEPQPTIEVPVTIPIFDNNNNPLLEIPIPASMPISDINDEIKDLFSAGGSA [r15_309_TrROS]	-1.57 ± 0.7	< -1
SAGGSENPNDPRPVVPVGVAVVDIEIHGHPDMTEEERLAAVEEAVEALEGLEVEHPDGHPTILLAGSAGGSA [r2_149_TrMRF]	-0.161 ± 0.071	< -1
SAGGSGMRKFSPEEAKKKEVVITIPVVTYSPSLKFSPVTVPVTVSGPVTSDEEAKEKVEKAVKELASAGGSA [r2_244_JUSTAS]	-1.03 ± 0.48	< -1
SAGGSLPADAEVTEVVEDPSKGVVTVKVTVRDSEGKVVEERTVVTPVEPVPPLSPENLKKNLLLTLLSAGGS [r16_697_JUSTAS]	0.249 ± 0.12	-0.741 ± 0.94
SAGGSLPVVDGPSDLVETTVYEDGTIEIKVERAEPPGVPTVRTLTITLEPPVGPPKVPPGNPKYLGSAGGSA [r2_368_JUSTAS]	-1.08 ± 0.53	< -1
SAGGSMTLTEVSYEGDKVVTTTTTFTPGAPALTSSTTTTPIPPVPLGPRPVIFFEPVSEMRPLALVSAGGSA [r2_332_JUSTAS]	0.628 ± 0.051	0.034 ± 0.17
SAGGSMTLTFRKPDTDVTSEKVTKPPGGPELVDLRITPPDGSGEKRTLTPEELAKEFGLSLEEILESAGGSA [r2_262_JUSTAS]	-0.183 ± 0.31	< -1
SAGGSPTIDITPEVFEELKKKGVTPDKESFNITASLPDGTVYEGTITLPPSNPNIPFEYKPVDKPLESAGGS [r16_497_JUSTAS]	-0.22 ± 0.061	-0.515 ± 0.21
SAGGSRQVIEWEFKDPKNGKPFEISIEYDEENGVPMVEIRDRNGEPNAVVPVPPDNADEALEKFGISAGGSA [r2_115_TrROS]	-0.903 ± 0.46	< -1
SAGGSVRIESIKWKRPPNGMFKIEIHVEAPPGDPDDPEKQERQAESVAKPIAKELQDEFGFKPIGPSAGGSA [r2_306_TrROS]	-0.774 ± 0.99	< -1
SAGGWMPIEDLKDIPENMPPGYKITIRNPGNGQEGTFEYNKDGGIKIEDPGKPVEIPPGAYIDEIEPSAGGS [r8_162_TrROS]	0.654 ± 0.12	-0.679 ± 0.71
SAGGWRLNINFPPDNIEKIVEKLRDEFPGWEIKPDKIEYNPDDGQYTIPIEVKSKNPRAAEKIQDAIQSAGG [r13_539_TrROS]	0.154 ± 0.14	-0.955 ± 0.39
SAGKFKITSIKPLYVTTPADAPPVKKPYLVIELDAEDPEKARELAEKLTGAPVLVVEDPETGTATIVIDSAG [r5_907_TrMRF]	0.121 ± 0.082	-0.357 ± 0.17
SAGKITIEYDKETNTVTVTIEIEIEVINEDGSIEKKKITITVKVKVDKKTNKVELLSLDEILKKLEELLSAG [r5_239_TrROS_Hall]	2.92 ± 0.2	3.81 ± 0.36

Sequence	folding stability dG unfold [1] [kcal/mol]	folding stability dG unfold [2] [kcal/mol]
SAGMYTVLETRTVNGRTVTLIDVPERPLTVTVTVDRDPSGRRTVTVNVEGEVKEILEKANPDIDELTLESAG [r5_933_JUSTAS]	0.456 ± 0.096	-0.15 ± 0.2
SAGPKIVEVKPSNGKLEITVEIPVPGAPVLFLNPAKNATIESDPNGRITITLDSEGEYEIIIGNPVFDSAGG [r19_227_TrMRF]	0.394 ± 0.026	0.0526 ± 0.087
SAGSMPVESTSERKLEKDGVATVTTTSYPDASPGGTDTVTVTLHPGESESATTTYTQPPGAPPLTVSLESAG [r5_47_JUSTAS]	-1.05 ± 0.27	< -1
SAGVEELAEKIAKELEGEDFEVEAEVDPEKGTITVVVKTPDYVVVKEIYIDPKNDKPVMDVKVFKPNESAGG [r19_2_TrMRF]	0.241 ± 0.059	-0.954 ± 0.7
SAGWRRIPPGRPIRIRLKGNGEEITIPIPEGAEVEPDPDNNNVMIWFREDGKEWSMNFKNGRIDDIEPVSAG [r5_22_TrROS]	-0.194 ± 0.32	< -1
SALPPEEVKKLARDIMREFNPDNGFKPEDVDVDPNEGTIMVDWRMPDPNGKRHRMPFQIQVDKDGKIKISAG [r14_183_TrROS]	-0.306 ± 0.36	< -1
SAMTLTVPPSLSATDAAGNAIPPSLSIEVEKVTPLPETGKVVAEVKITDPETGETTTRPLTITLPPGEASAG [r14_258_JUSTAS]	0.827 ± 0.048	0.506 ± 0.19
SDILERAAEKGVDEIHIMLQPNQIELIKRLQDRGAKIEIHFPPGVPKEYLKKLPGFKVDKVEWMPPDDMPSA [r9_671_TrROS]	-0.928 ± 0.56	< -1
SDVNIKPEKVDPNGIFTVEIPVDNNNVDKLREIINEIFPNFEPTEVKPNPESGYHEIIMRVPDGKAFEFSSA [r9_1164_TrROS]	-0.141 ± 0.04	-0.55 ± 0.14
SGMTTSLGKSTTTTLPDGTTVKTEVKLTRPSSGTVVVTTDTTTVTPGTGTTTTTPTTTVVPVPPGVPGLLSA [r9_709_JUSTAS]	-0.522 ± 0.051	< -1
SGNSLNEKGESYPITVKAPDPNVTPEQVKAALEKAGAKVLEIKRPPKGSTLTVSVEITDPEKVKEAFEKLSA [r9_1154_JUSTAS]	-1.05 ± 0.44	< -1
SGSPSTPVTITVEFPPRLTTVLYREPTRPPLGYLLVPEPSRTETITVPVSEVAAVKAELEPRGMTVTVTASA [r9_167_JUSTAS]	-0.69 ± 0.33	< -1
SITASAKHPEEAIELAEKLKKELEKLLGPDTKVPITLYDDKGNPATFPITLKKKKPKVIYDPEKGLYRDESA [r9_596_TrMRF]	0.042 ± 0.25	-0.332 ± 0.55
SKITITIEEEEVEVNGKKYKVFKVTATVTVTEYKFKDGKLVEKKTKTKTITVRIVLDKNGKIVKIEPLPDSA [r9_829_TrROS_Hall]	4.33 ± 0.32	> 6
SKMKIKIEITEVYPEGKTIVVKAEIEIDGKTIEMEMTIKLPNGEEYRIRMRFVRRKDGRLEMEIEVEKLPSA [r9_255_TrROS_Hall]	5.33 ± 0.51	> 6
SKVLELLKELAKKLGATITEVKVEKLEDGTVKVTATITVTYLDKNGKPVKTETLTLTITVKNGKITEIKLSA [r9_519_TrROS_Hall]	4.66 ± 0.55	> 6
SMGLTKKERVITIVKEAYAKNPDKKITLRYADIEATTPEKMSAEEIEKLLKEVTGIKDIKIYPVKPDDPESA [r9_738_TrMRF]	0.0464 ± 0.25	< -1
SMKALVLELPEEKVVVVFETDELKVVPIPVKDKEEAKEKIEELVKELEEETGKKPEVVVVEVDEDEELPVSA [r9_786_TrMRF]	-0.0691 ± 0.16	< -1
